Laboratory results from publication PMC2994906 (PLoS ONE, 2010).
No end group written: not given here.

T1: human RARα LBD (residues 153-421) (human, UniProt P10276 153-421)
T1 construct: Cloned in pET15b; The purification of RARα alone is not described; also called hRARα LBD; RARα monomer; source: E. coli BL21 (DE3), purified
T1 sequence (looked up): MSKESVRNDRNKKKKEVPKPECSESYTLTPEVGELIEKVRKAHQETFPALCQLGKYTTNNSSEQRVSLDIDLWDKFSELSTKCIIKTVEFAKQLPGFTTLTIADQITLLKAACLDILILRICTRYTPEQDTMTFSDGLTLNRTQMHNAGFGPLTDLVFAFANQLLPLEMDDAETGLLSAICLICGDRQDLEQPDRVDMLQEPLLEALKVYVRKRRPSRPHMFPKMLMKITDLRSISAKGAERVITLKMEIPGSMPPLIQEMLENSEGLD

T2: hRARα/mRXRα LBD heterodimer (human | mouse, UniProt P10276 153-421; P28700 228-467)
T2 construct: RARα in pET15b (His-tagged), RXRα in pET3a (no tag named); The heterodimer was formed beforehand by copurification; also called RAR/RXR; RARα/RXRα LBD; copies: 1 + 1
T2 sequence (looked up) 1: T1 sequence (looked up)
T2 sequence (looked up) 2: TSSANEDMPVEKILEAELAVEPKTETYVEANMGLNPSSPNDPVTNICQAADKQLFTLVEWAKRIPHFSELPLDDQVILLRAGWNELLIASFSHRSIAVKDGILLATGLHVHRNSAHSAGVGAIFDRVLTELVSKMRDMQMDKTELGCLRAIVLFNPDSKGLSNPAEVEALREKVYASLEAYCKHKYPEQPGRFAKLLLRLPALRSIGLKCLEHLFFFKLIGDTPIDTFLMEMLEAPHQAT

T3: hRARα/mRXRα LBD heterodimer (human | mouse, UniProt P10276 153-421; P28700 228-467)
T3 construct: Heterodimer formed beforehand; small-molecule ligands (atRA, LG100754, AM580, BMS614, BMS649, 9-cisRA, HX531) differ between experiments and are named in the assays; also called RARα/RXRα LBD; RAR/RXR; not shown: His6, N-terminal, kept; copies: 1 + 1
T3 sequence (looked up) 1: T1 sequence (looked up)
T3 sequence (looked up) 2: T2 sequence (looked up) 2

B1: SRC-1 NR2 peptide (676-[residues removed]-700) (peptide)
peptide: CPSSHSSLTERHKILHRLLQEGSPS
notes: The unlabelled 25-residue peptide used in ITC and ESI-MS; It is not the 13-residue TAMRA-labelled peptide of the anisotropy titrations
B2: TAMRA-labeled SRC-1 NR2 peptide (686-RHKILHRLLQEGS-698) (peptide)
peptide: RHKILHRLLQEGS
modifications: also: TAMRA label, position not given here
notes: also called (TAMRA) – SRC-1 NR2 peptide; source: bought: Neosystem (Strasbourg, France)

Assays:
Conditions in all cases: both partners purified
[1] = molecular target: T1, human RARα LBD (residues 153-421); assay: ITC; SRC-1 NR2 peptide (1.3 mM) injected into 20-50 µM RAR without ligand (apo); 30°C; 20 mM Tris pH 8.0, 200 mM NaCl, 2% ethanol
[2] = molecular target: T1, human RARα LBD (residues 153-421); assay: ITC; SRC-1 NR2 peptide (1.3 mM) injected into 20-50 µM RAR or RAR/RXR with LG100754 in fivefold molar excess; 30°C; 20 mM Tris pH 8.0, 200 mM NaCl, 2% ethanol
[3] = molecular target: T2, hRARα/mRXRα LBD heterodimer; assay: as above
[4] = molecular target: T1, human RARα LBD (residues 153-421); assay: ITC; SRC-1 NR2 peptide (1.3 mM) injected into 20-50 µM RAR with an RAR agonist in fivefold molar excess (agonist not named); 30°C; 20 mM Tris pH 8.0, 200 mM NaCl, 2% ethanol
[5] = molecular target: T3, hRARα/mRXRα LBD heterodimer; assay: fluorescence polarisation; fluorescence anisotropy; hRARα/mRXRα LBDs added to 1 µM TAMRA-SRC-1 NR2 peptide; 20°C; 10 mM TRIS-HCl pH 7.5, 150 mM NaCl, 10 mM DTT; apparent; RAR ligand AM580, RXR apo
[6] = molecular target: T3, hRARα/mRXRα LBD heterodimer; assay: fluorescence polarisation; fluorescence anisotropy; hRARα/mRXRα LBDs added to 1 µM TAMRA-SRC-1 NR2 peptide; 20°C; 10 mM TRIS-HCl pH 7.5, 150 mM NaCl, 10 mM DTT; apparent; RAR apo, RXR ligand BMS649
[7] = molecular target: T3, hRARα/mRXRα LBD heterodimer; assay: fluorescence polarisation; fluorescence anisotropy; hRARα/mRXRα LBDs added to 1 µM TAMRA-SRC-1 NR2 peptide; 20°C; 10 mM TRIS-HCl pH 7.5, 150 mM NaCl, 10 mM DTT; apparent; RAR ligand BMS614, RXR ligand BMS649
[8] = molecular target: T3, hRARα/mRXRα LBD heterodimer; assay: fluorescence polarisation; fluorescence anisotropy; hRARα/mRXRα LBDs added to a fixed concentration of TAMRA-SRC-1 NR2 peptide; 20°C; 10 mM TRIS-HCl pH 7.5, 150 mM NaCl, 10 mM DTT; apparent; RAR apo, RXR apo
[9] = molecular target: T3, hRARα/mRXRα LBD heterodimer; assay: fluorescence polarisation; fluorescence anisotropy; hRARα/mRXRα LBDs added to 1 µM TAMRA-SRC-1 NR2 peptide; 20°C; 10 mM TRIS-HCl pH 7.5, 150 mM NaCl, 10 mM DTT; apparent; RAR ligand AM580, RXR ligand LG100754
[10] = molecular target: T3, hRARα/mRXRα LBD heterodimer; assay: fluorescence polarisation; fluorescence anisotropy; hRARα/mRXRα LBDs added to a fixed concentration of TAMRA-SRC-1 NR2 peptide; 20°C; 10 mM TRIS-HCl pH 7.5, 150 mM NaCl, 10 mM DTT; apparent; RAR apo, RXR ligand LG100754
[11] = molecular target: T3, hRARα/mRXRα LBD heterodimer; assay: fluorescence polarisation; fluorescence anisotropy; hRARα/mRXRα LBDs added to a fixed concentration of TAMRA-SRC-1 NR2 peptide; 20°C; 10 mM TRIS-HCl pH 7.5, 150 mM NaCl, 10 mM DTT; apparent; RAR ligand BMS614, RXR ligand LG100754
[12] = molecular target: T3, hRARα/mRXRα LBD heterodimer; assay: fluorescence polarisation; fluorescence anisotropy; hRARα/mRXRα LBDs added to 1 µM TAMRA-SRC-1 NR2 peptide; 20°C; 10 mM TRIS-HCl pH 7.5, 150 mM NaCl, 10 mM DTT; apparent; 9-cisRA on RAR and RXR; two sites, fit gave k2 identical to k1
[13] = molecular target: T3, hRARα/mRXRα LBD heterodimer; assay: fluorescence polarisation; fluorescence anisotropy; hRARα/mRXRα LBDs added to 1 µM TAMRA-SRC-1 NR2 peptide; 20°C; 10 mM TRIS-HCl pH 7.5, 150 mM NaCl, 10 mM DTT; apparent; RAR ligand AM580, RXR ligand BMS649; two sites, fit gave k2 identical to k1

Row | Binder | Kd [1] [nM] | Kd [2] [nM] | Kd [3] [nM] | Kd [4] [nM] | Kd [5] [nM] | Kd [6] [nM] | Kd [7] [nM] | Kd [8] [nM] | Kd [9] [nM] | Kd [10] [nM] | Kd [11] [nM] | Kd [12] [nM] | Kd [13] [nM]
1 | B1 | 9000 ± 400 | 1600 ± 200 | 4500 ± 600 | 1400 ± 100 |  |  |  |  |  |  |  |  | 
2 | B2 |  |  |  |  | 190 ± 20 | 420 ± 30 | 450 ± 40 | 2000 ± 100 | 170 ± 10 | 2500 ± 100 | > 10000 | 610 ± 20 | 290 ± 20
